{
  "source": "patent US20260184748A1",
  "about": "(University of Pennsylvania, published 2026)",
  "assay_in_all_cases": "cell-based or functional assay",
  "key": {"TRHR": {"target": "T1, TRHR (UniProt P34981 1-398)", "T1 sequence (looked up)": "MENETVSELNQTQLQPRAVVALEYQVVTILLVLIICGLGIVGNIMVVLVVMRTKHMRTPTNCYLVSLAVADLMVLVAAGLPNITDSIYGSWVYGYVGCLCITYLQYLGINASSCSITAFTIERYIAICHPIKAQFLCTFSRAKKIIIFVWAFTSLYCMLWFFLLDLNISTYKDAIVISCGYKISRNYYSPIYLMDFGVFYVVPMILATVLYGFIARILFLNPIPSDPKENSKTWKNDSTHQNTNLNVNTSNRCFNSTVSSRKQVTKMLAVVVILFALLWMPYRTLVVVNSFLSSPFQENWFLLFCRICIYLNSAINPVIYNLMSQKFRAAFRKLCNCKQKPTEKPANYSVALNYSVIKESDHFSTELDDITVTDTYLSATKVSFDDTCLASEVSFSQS"}, "UTR2": {"target": "T2, UTR2 (UniProt Q9UKP6 1-389)", "T2 sequence (looked up)": "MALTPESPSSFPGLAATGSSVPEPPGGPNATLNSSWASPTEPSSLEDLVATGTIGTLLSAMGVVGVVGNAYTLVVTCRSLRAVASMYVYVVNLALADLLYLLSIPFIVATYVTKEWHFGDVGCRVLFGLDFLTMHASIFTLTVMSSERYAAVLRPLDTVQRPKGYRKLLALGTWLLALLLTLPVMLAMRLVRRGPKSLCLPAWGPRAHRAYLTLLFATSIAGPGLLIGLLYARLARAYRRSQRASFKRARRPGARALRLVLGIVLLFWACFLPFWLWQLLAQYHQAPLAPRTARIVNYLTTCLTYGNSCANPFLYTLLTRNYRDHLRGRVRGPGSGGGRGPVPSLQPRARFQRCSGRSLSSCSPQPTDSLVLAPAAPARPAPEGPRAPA"}, "PTHR1": {"target": "T3, PTHR1 (UniProt Q03431 27-593)", "T3 sequence (looked up)": "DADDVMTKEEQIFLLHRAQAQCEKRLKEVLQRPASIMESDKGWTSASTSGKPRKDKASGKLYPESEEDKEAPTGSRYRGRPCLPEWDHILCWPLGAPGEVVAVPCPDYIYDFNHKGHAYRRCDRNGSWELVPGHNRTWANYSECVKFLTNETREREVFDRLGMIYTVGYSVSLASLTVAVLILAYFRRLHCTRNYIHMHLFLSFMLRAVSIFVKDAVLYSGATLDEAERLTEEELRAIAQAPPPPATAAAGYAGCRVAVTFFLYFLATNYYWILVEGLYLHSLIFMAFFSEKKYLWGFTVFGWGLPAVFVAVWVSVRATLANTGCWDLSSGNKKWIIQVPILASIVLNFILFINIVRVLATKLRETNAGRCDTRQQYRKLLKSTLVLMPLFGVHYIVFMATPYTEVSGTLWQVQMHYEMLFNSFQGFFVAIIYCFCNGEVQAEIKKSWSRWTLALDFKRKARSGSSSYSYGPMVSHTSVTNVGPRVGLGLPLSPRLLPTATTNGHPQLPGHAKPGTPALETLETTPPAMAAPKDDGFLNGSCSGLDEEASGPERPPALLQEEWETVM"}, "OXER1": {"target": "OXER1 (UniProt Q8TDS5 1-384, limits assumed)", "sequence (Q8TDS5 whole entry)": "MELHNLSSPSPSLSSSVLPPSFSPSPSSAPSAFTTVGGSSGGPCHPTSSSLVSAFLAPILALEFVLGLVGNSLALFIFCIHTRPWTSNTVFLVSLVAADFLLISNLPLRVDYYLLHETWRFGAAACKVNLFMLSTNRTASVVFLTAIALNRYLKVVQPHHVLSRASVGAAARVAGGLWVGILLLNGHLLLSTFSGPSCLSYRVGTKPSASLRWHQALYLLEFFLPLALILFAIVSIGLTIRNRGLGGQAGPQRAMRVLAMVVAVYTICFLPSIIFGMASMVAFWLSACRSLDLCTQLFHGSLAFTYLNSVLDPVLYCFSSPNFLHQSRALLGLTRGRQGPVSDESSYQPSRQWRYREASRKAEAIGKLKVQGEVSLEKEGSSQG"}, "TACR3": {"target": "T4, TACR3 (UniProt P29371 1-465)", "T4 sequence (looked up)": "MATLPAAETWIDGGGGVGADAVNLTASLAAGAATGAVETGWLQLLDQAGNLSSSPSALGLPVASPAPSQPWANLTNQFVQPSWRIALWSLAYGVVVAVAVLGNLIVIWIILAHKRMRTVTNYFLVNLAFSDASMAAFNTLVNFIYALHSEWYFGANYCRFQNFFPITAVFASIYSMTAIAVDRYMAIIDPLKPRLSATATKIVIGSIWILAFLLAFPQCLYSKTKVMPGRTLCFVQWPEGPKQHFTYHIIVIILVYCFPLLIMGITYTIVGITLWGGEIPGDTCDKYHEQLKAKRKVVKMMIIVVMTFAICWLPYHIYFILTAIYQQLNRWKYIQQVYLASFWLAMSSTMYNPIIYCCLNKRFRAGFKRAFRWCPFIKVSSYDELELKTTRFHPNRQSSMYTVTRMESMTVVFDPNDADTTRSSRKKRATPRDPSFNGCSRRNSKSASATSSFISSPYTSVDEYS"}, "EDNRA": {"target": "T5, EDNRA (UniProt P25101 21-427)", "T5 sequence (looked up)": "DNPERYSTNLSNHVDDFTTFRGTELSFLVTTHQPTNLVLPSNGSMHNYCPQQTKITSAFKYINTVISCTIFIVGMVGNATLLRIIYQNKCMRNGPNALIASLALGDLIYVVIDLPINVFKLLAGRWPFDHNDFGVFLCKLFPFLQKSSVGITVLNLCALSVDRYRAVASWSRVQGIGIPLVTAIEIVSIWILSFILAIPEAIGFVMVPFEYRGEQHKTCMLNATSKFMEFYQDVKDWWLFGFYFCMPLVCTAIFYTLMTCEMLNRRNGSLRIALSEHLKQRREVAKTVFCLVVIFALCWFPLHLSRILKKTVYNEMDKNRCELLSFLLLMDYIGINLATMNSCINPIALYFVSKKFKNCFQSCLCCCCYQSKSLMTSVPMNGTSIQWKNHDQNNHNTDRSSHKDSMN"}, "NPY2R": {"target": "T6, NPY2R (UniProt P49146 1-381)", "T6 sequence (looked up)": "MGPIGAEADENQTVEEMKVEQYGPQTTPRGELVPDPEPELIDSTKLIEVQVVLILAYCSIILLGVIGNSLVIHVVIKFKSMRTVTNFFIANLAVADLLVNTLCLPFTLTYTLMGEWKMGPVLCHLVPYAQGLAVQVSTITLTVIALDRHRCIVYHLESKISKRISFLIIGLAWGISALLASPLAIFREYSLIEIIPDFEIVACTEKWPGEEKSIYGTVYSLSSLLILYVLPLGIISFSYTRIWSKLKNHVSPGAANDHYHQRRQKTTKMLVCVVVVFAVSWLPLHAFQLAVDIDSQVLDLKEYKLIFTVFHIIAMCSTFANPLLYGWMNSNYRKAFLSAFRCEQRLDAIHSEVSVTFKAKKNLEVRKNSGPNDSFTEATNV"}},
  "note": "Where no end group is shown, it is not given here.",
  "data": [
    {"binder": "QATVGDVNTDRPGLLDLK (also: synthesised on Rink amide resin, C-terminal amide not given here outright)", "note": "[octadecaneuropeptide (ODN)]", "values": [
      {"measurement": "% Activity, arrestin, antagonist mode, 2.5 uM", "setting": "TRHR", "result": -6.6, "unit": "%"},
      {"measurement": "% Activity, arrestin, antagonist mode, 2.5 uM", "setting": "UTR2", "result": -27.2, "unit": "%"},
      {"measurement": "% Activity, arrestin, antagonist mode, 2.5 uM", "setting": "PTHR1", "result": -5.7, "unit": "%"},
      {"measurement": "% Activity, arrestin, antagonist mode, 2.5 uM", "setting": "OXER1", "result": -39.7, "unit": "%"},
      {"measurement": "% Activity, arrestin, antagonist mode, 2.5 uM", "setting": "TACR3", "result": -5.8, "unit": "%"},
      {"measurement": "% Activity, arrestin, antagonist mode, 2.5 uM", "setting": "EDNRA", "result": 2.5, "unit": "%"},
      {"measurement": "% Activity, arrestin, antagonist mode, 2.5 uM", "setting": "NPY2R", "result": -10.3, "unit": "%"}
    ]}
  ]
}
